B1: OR4K15 (parent)
chain: GUUAACGGUCAUAGGCCAUGGAAACUAGGAGCACCAUUUCGCUGCCAGUGAAGAAAUGAACAAAGAAAAUCUGGGCCAGGCAGGCAUCAAAAGAAAUAGUCUUGCGCUCAACCAGAAAGUCUGUAAUCAUUUUAAGGGUA

Variants of: B1
Test: self-cleavage, relative activity (ratio to wild type); higher = more cleavage; in vitro, sequencing; the parent is a self-cleaving ribozyme
Work on GUUAACGGUCAUAGGCCAUGGAAACUAGGAGCACCAUUUCGCUGCCAGUGAAGAAAUGAACCAAGAAAAUCUGGGCCAGGCAGGCAUCAAAAGAAAUAGUCUUGCGCUCAACCAGAAAGUCUGUAAUCAUUUUAAGGGUA yielded a self-cleavage of 1.64.
Work on GUUAACGGUCAUAGGCCAUGGAAACUAGGAGCACCAUUUCGCUGCCAGUGAAGAAAUGAAUAAAGAAAAUCUGGGCCAGGCAGGCAUCAAAAGAAAUAGUCUUGCUCUCAACCAGAAAGUCUGUAAUCAUUUUAAGGGUA yielded a self-cleavage of 0.04.
Variant GUUAACGGUCAUAGGCCAUGGAAACUAGGAGCACCAUUUCGCUGCCAGUGAAGAAAUGAACCAAGAAAAUCUGGGCCAGGCAGGCAUCAAAAGAAAUAGUCUUGCGCUCAACCAGAAAGUCUGUAAUCAUUUUAGGGGUA has a self-cleavage of 1.24.
GUUAACGGUCAUAGGCCAUGGAAACUAGGAGCACCAUUUCGCUGCCAGUGAAGAAAUGAAUAAAGAAAAUCUGGGCCAGGCAGGCAUCAAAAGAAAUAGUCUUGCGCUCAACCAGAAAGUCUGUAAUCAUUUUAAAGGUA showed a self-cleavage of 2.1.
In the case of GUUAACGGUCAUAGGCCAUGGAAACUAGGAGCACCAUUUCGCUGCCAGUGAAGAAAUGAAUAAAGAAAAUCUGGGCCAGGCAGGCAUCAAAAGAAAUAGUCUUGCGCUCAACCAGAGAGUCUGUAAUCAUUUUAAGGGUA, the self-cleavage is reported as 1.54.
GUUAACGGUCAUAGGCCAUGGAAACUAGGAGCACCAUUUCGCUGCCAGUGAAGAAAUGAACCAAGAAAAUCUGGGCCAGGCAGGCAUCAAAAGAAAUAGUCUUGCGCUCAACCAGGAAGUCUGUAAUCAUUUUAAGGGUA showed a self-cleavage of 0.78.
Work on GUUAACGGUCAUAGGCCAUGGAAACUAGGAGCACCAUUUCGCUGCCAGUGAAGAAAUGAACCAAGAAAAUCUGGGCCAGGCAGGCAUCAAAAGAAAUAGUCUUGCGCUCAACCAGUAAGUCUGUAAUCAUUUUAAGGGUA yielded a self-cleavage of 0.63.
Variant GUUAACGGUCAUAGGCCAUGGAAACUAGGAGCACCAUUUCGCUGCCAGUGAAGAAAUGAACCAAGAAAAUCUGGGCCUGGCAGGCAUCAAAAGAAAUAGUCUUGCGCUCAACCAGAAAGUCUGUAAUCAUUUUAAGGGUA has a self-cleavage of 0.46.
With GUUAACGGUCAUAGGCCAUGGAAACUAGGAGCACCAUUUCGCUGCCAGUGAAGAAAUGAACCGAGAAAAUCUGGGCCAGGCAGGCAUCAAAAGAAAUAGUCUUGCGCUCAACCAGAAAGUCUGUAAUCAUUUUAAGGGUA the self-cleavage was 1.55.
GUUAACGGUCAUAGGCCAUGGAAACUAGGAGCACCAUUUCGCUGCCAGUGAAGAAAUGAAUAAAGAAAAUCUGGGCCAGGCAGGCAUCAAAAGAAAUAGUCUUGCGCUCAACCAGAAAGUCUGUAAUCAUUUCAAGGGUA gave a self-cleavage of 1.21.
GUUAACGGUCAUAGGCCAUGGAAACUAGGAGCACCAUUUCGCUGCCAGUGAAGAAAUGAACCAAGAAAAUCUGGGCCAGGCAGGCAUCAAAAGAAAUAGUCUUGCGCUCAACCAGAAAGUCUGUAAUCAUUUUGAGGGUA gave a self-cleavage of 1.15.
GUUAACGGUCAUAGGCCAUGGAAACUAGGAGCACCAUUUCGCUGCCAGUGAAGAAAUGAACCAAGAAAAUCUGGGCCAGGCAGGCAUCAAAAGAAGUAGUCUUGCGCUCAACCAGAAAGUCUGUAAUCAUUUUAAGGGUA gave a self-cleavage of 2.59.
In the case of GUUAACGGUCAUAGGCCAUGGAAACUAGGAGCACCAUUUCGCUGCCAGUGAAGAAAUGAACCAAGAAAAUCUGGGCCAGGCAGGCGUCAAAAGAAAUAGUCUUGCGCUCAACCAGAAAGUCUGUAAUCAUUUUAAGGGUA, the self-cleavage is reported as 1.15.
With GUUAACGGUCAUAGGCCAUGGAAACUAGGAGCACCAUUUCGCUGCCAGUGAAGAAAUGAAUAAAGAAAAUCUGGGCCAGGCAGGCAUCAAAAGAAAUAGUCUUGCGCUCAACCAGAAAGUCUGUAAUCAUUCUAAGGGUA the self-cleavage was 1.89.
Work on GUUAACGGUCAUAGGCCAUGGAAACUAGGAGCACCAUUUCGCUGCCAGUGAAGAAAUGAAUAAAGAAAAUCUGGGCCAGGCAGGCAUCAAAAGAAAUAGUCUUGCGCUCAACCAAAAAGUCUGUAAUCAUUUUAAGGGUA yielded a self-cleavage of 0.08.
GUUAACGGUCAUAGGCCAUGGAAACUAGGAGCACCAUUUCGCUGCCAGUGAAGAAAUGAACCAAGAAAAUCUGGGCCAGGCAGGCAUCAAAGGAAAUAGUCUUGCGCUCAACCAGAAAGUCUGUAAUCAUUUUAAGGGUA showed a self-cleavage of 1.58.
GUUAACGGUCAUAGGCCAUGGAAACUAGGAGCACCAUUUCGCUGCCAGUGAAGAAAUGAACCAAGAAAAUCUGGGCCAGGCAGGCAUCAAAAGAAAUAGUCUUGCGCUCAACCAGAAAGUCUGUAAUCAUUUUAAGGGUU gave a self-cleavage of 1.7.
With GUUAACGGUCAUAGGCCAUGGAAACUAGGAGCACCAUUUCGCUGCCAGUGAAGAAAUGAAUAAAGAAAAUCUGGGCCAGGCAGGUAUCAAAAGAAAUAGUCUUGCGCUCAACCAGAAAGUCUGUAAUCAUUUUAAGGGUA the self-cleavage was 0.95.
Work on GUUAACGGUCAUAGGCCAUGGAAACUAGGAGCACCAUUUCGCUGCCAGUGAAGAAAUGAAUAAAGAAAAUCUGGGCCAGGCAGGCAUCAAAAGAAAUAGUUUUGCGCUCAACCAGAAAGUCUGUAAUCAUUUUAAGGGUA yielded a self-cleavage of 0.54.
GUUAACGGUCAUAGGCCAUGGAAACUAGGAGCACCAUUUCGCUGCCAGUGAAGAAAUGAACCAAGAAAAUCUGGGCCAGGCAAGCAUCAAAAGAAAUAGUCUUGCGCUCAACCAGAAAGUCUGUAAUCAUUUUAAGGGUA gave a self-cleavage of 2.18.
In the case of GUUAACGGUCAUAGGCCAUGGAAACUAGGAGCACCAUUUCGCUGCCAGUGAAGAAAUGAAUAAAGAAAAUCAGGGCCAGGCAGGCAUCAAAAGAAAUAGUCUUGCGCUCAACCAGAAAGUCUGUAAUCAUUUUAAGGGUA, the self-cleavage is reported as 0.19.

— the RNAGym collection of RNA variant scans (doi:10.7554/elife.90254)
